The target in assay [1] is OG488-EGR-labeled fXa-R165A. As to the kind of experiment: fluorescence polarisation. Background: Polarisation of emitted light reports the rotation of a fluorescent probe.
A further assay concerns the target OG488-EGR-labeled E2-fXa. As to the kind of experiment: fluorescence polarisation.
Assay [2] has as its target OG488-EGR-labeled wild-type factor Xa. As to the kind of experiment: fluorescence polarisation.
Assay [3] concerns the target OG488-EGR-labeled fXa-R165A. As to the kind of experiment: fluorescence polarisation. This is another data set of the same source.
The target of assay [4] is OG488-EGR-labeled fXa-des-Gla. As to the kind of experiment: fluorescence polarisation.
For another assay, the target named is T1, factor Va (Homo sapiens, UniProt P12259).
T1 chain 1: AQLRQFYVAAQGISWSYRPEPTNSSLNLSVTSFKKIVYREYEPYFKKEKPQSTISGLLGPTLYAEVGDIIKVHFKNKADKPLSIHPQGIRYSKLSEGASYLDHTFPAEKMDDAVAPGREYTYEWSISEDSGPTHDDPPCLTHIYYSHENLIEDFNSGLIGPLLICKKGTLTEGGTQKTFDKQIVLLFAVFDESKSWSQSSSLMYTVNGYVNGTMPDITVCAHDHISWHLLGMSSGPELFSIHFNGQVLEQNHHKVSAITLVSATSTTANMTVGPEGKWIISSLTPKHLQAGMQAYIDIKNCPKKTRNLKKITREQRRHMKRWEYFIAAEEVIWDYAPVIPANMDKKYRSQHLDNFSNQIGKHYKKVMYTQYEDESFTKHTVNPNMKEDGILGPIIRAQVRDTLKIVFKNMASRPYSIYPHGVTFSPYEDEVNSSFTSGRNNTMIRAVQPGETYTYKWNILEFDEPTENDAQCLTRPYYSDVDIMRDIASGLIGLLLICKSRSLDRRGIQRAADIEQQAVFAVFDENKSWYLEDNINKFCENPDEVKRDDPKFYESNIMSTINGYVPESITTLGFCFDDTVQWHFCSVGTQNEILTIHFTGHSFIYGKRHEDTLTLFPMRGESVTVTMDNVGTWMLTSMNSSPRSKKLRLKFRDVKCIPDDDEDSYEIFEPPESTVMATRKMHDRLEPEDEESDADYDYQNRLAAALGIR
T1 chain 2: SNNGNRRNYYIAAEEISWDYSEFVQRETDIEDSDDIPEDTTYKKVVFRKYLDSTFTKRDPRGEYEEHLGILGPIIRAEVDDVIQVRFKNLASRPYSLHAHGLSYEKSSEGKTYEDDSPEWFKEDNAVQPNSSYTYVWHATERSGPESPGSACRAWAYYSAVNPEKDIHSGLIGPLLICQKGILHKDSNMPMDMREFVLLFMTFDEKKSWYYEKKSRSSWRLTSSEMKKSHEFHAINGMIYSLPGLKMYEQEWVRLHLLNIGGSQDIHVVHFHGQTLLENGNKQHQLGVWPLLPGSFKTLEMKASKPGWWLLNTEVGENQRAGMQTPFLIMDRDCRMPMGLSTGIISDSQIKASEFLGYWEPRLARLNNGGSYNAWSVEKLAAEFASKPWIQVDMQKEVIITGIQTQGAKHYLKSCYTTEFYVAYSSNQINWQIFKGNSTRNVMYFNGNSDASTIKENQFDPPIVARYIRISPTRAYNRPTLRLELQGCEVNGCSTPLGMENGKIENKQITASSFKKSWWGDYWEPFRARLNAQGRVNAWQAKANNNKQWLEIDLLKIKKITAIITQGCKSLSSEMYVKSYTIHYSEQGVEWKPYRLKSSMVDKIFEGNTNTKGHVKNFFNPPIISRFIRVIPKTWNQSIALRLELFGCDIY
As to the kind of experiment: prothrombinase assay.

Read-outs that look alike come from different tables or passages of the source.

By Kd is commonly meant the concentration at which binding is half-saturated. Higher therefore signals a looser complex.

Consider “human plasma factor Va (from UniProt P12259 29-737; P12259 1574-2224) (natural protein)”, for which the Kd was determined as 10.5 nM in assay [1]; 62 nM with OG488-EGR-labeled E2-fXa; 1.5 nM in assay [2]; 10.3 nM in assay [3]; 58 nM in assay [4].

B1: factor Xa (protein)
chain: IVGGQECKDGECPWQALLINEENEGFCGGTILSEFYILTAAHCLYQAKRFKVRVGDRNTEQEEGGEAVHEVEVVIKHNRFTKETYDFDIAVLRLKTPITFRMNVAPACLPERDWAESTLMTQKTGIVSGFGRTHEKGRQSTRLKMLEVPYVDRNSCKLSSSFIITQNMFCAGYDTKQEDACQGDSGGPHVTRFKDTYFVTGIVSWGEGCARKGKYGIYTKVTAFLKWIDRSMKTRGLPKAKSHAPEVITSSPLK
modifications: PCPS vesicles
Regarding B1, the Kd in the assay with factor Va turned out to be 0.5 nM.

Values taken from article PMC2693874 (2009).
